Here are results for 2 substances from article PMC3098157.

For experiment [1], the target named is LEDGF/p75 WT (Lens epithelium-derived growth factor/p75) (UniProt O75475).
In experiment [2] the target is LEDGF/p75 ΔPWWP (stably expressed in HEK293T-derived cells).
The target in the next experiment is FLAG-tagged LEDGF/p75 WT (UniProt O75475).
In experiment [3] the target is FLAG-tagged LEDGF/p75 ΔPWWP.

Consider Myc-tagged HIV-1 integrase (enzyme), for which the salt extraction assay: percent of LEDGF/p75 WT extracted from chromatin at NaCl above 200 mM in cells co-expressing HIV-1 integrase (around 70% without integrase) in experiment [1] is less than 1%. In addition, in experiment [2], the salt extraction assay: percent of LEDGF/p75 ΔPWWP extracted from chromatin at 100 mM and 150 mM NaCl in cells co-expressing HIV-1 integrase (30% and 70% without integrase) is less than 2%.
For “Myc-eGFP-tagged HIV-1 integrase WT (enzyme)”, in the experiment with FLAG-tagged LEDGF/p75 WT, the salt extraction assay, transient coexpression: NaCl needed to extract LEDGF/p75 WT from chromatin with integrase WT (250 mM without integrase) was more than 300 mM. In addition, in experiment [3], the salt extraction assay, transient coexpression: NaCl needed for complete extraction of LEDGF/p75 ΔPWWP from chromatin with integrase WT (150 mM without integrase) was more than 200 mM.
